Experimental data reported in article PMC13086950 (Nature Communications, 2026).

Experiments:
[1] = biological target: the molecule itself; assay: SEC-MALS; fraction A2’ of GephFL, 100 μL at 1.3 mg/mL, Superose 6 Increase 10/300 GL, 20 mM HEPES pH 8.0, 150 mM NaCl, 1 mM EDTA, 5 mM β-mercaptoethanol
[2] = biological target: the molecule itself; assay: SEC-MALS; fraction A1 of GephFL, 100 μL at 1.3 mg/mL, Superose 6 Increase 10/300 GL, 20 mM HEPES pH 8.0, 150 mM NaCl, 1 mM EDTA, 5 mM β-mercaptoethanol
[3] = biological target: the molecule itself; assay: SEC-MALS; fraction B1’ of GephFL, 100 μL at 1.2 mg/mL, Superose 6 Increase 10/300 GL, 20 mM HEPES pH 8.0, 150 mM NaCl, 1 mM EDTA, 5 mM β-mercaptoethanol

B1: Full-length gephyrin, splice variant P1 (natural protein)
chain: MAHHHHHHGGSSGGSSEFMATEGMILTNHDHQIRVGVLTVSDSCFRNLAEDRSGINLKDLVQDPSLLGGTISAYKIVPDEIEEIKETLIDWCDEKELNLILTTGGTGFAPRDVTPEATKEVIEREAPGMALAMLMGSLNVTPLGMLSRPVCGIRGKTLIINLPGSKKGSQECFQFILPALPHAIDLLRDAIVKVKEVHDELEDLPSPPPPLSPPPTTSPHKQTEDKGVQCEEEEEEKKDSGVASTEDSSSSHITAAALAAKIPDSIISRGVQVLPRDTASLSTTPSESPRAQATSRLSTASCPTPKVQSRCSSKENILRASHSAVDITKVARRHRMSPFPLTSMDKAFITVLEMTPVLGTEIINYRDGMGRVLAQDVYAKDNLPPFPASVKDGYAVRAADGPGDRFIIGESQAGEQPTQTVMPGQVMRVTTGAPIPCGADAVVQVEDTELIRESDDGTEELEVRILVQARPGQDIRPIGHDIKRGECVLAKGTHMGPSEIGLLATVGVTEVEVNKFPVVAVMSTGNELLNPEDDLLPGKIRDSNRSTLLATIQEHGYPTINLGIVGDNPDDLLNALNEGISRADVIITSGGVSMGEKDYLKQVLDIDLHAQIHFGRVFMKPGLPTTFATLDIDGVRKIIFALPGNPVSAVVTCNLFVVPALRKMQGILDPRPTIIKARLSCDVKLDPRPEYHRCILTWHHQEPLPWAQSTGNQMSSRLMSMRSANGLLMLPPKTEQYVELHKGEVVDVMVIGRL
[1]
  stoichiometry N: ~4
[2]
  stoichiometry N: ~6
[3]
  stoichiometry N: 2
